Measurements published in the supplement of paper PMC5998384.

Key:
HeLa Kyoto [1] = assay: solubility in G1/S (NP-40 vs SDS abundance) (log2 ratio); higher = more soluble; conditions: cell cycle stage: G1/S
HeLa Kyoto [2] = assay: melting temperature (median over replicates), in situ; higher = more thermally stable
HeLa Kyoto [3] = assay: solubility change mitosis vs G1/S (difference of NP-40 vs SDS log2 ratios) (log2 ratio difference); higher = more soluble in mitosis
HeLa Kyoto [4] = assay: thermal stability score vs G1/S (z-score of summed log2 fold changes over temperatures); higher = more thermally stable than in G1/S
[5] = cell cycle stage: early G1 (4.5 h after nocodazole release)
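Throughout, for melting temperature (median over replicates), in situ: HeLa Kyoto cells synchronized by double thymidine or nocodazole block, proteins quantified by TMT10plex mass spectrometry, three independent biological replicates.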
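Throughout, for solubility change mitosis vs G1/S (difference of NP-40 vs SDS log2 ratios): synchronized HeLa Kyoto cells (double thymidine block for G1/S, nocodazole release for mitosis), protein amounts in NP-40 versus SDS lysates quantified by mass spectrometry, three biological replicates.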
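Throughout, for solubility in G1/S (NP-40 vs SDS abundance): HeLa Kyoto cells arrested at G1/S by double thymidine block, proteins quantified by TMT10plex mass spectrometry in mild NP-40 versus SDS extracts, three biological replicates.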
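Throughout, for thermal stability score vs G1/S (z-score of summed log2 fold changes over temperatures): synchronized HeLa Kyoto cells, proteins quantified by TMT10plex mass spectrometry, three biological replicates, mitosis taken 0.5 h after nocodazole release, G1/S directly after double thymidine block.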

Row | Sequence | solubility in G1/S (log2) (HeLa Kyoto [1]) | melting temperature (HeLa Kyoto [2]; cell cycle stage: G1/S) | melting temperature (HeLa Kyoto [2]; cell cycle stage: mitosis) | solubility change mitosis (log2) (HeLa Kyoto [3]) | thermal stability score (HeLa Kyoto [4]; [5]) | thermal stability score (HeLa Kyoto [4]; cell cycle stage: mitosis)
1 | MKKQFNRMKQLANQTVGRAEKTEVLSEDLLQIERRLDTVRSICHHSHKRLVACFQGQHGTDAERRHKKLPLTALAQNMQEASTQLEDSLLGKMLETCGDAENQLALELSQHEVFVEKEIVDPLYGIAEVEIPNIQKQRKQLARLVLDWDSVRARWNQAHKSSGTNFQGLPSKIDTLKEEMDEAGNKVEQCKDQLAADMYNFMAKEGEYGKFFVTLLEAQADYHRKALAVLEKTLPEMRAHQDKWAEKPAFGTPLEEHLKRSGREIALPIEACVMLLLETGMKEEGLFRIGAGASKLKKLKAALDCSTSHLDEFYSDPHAVAGALKSYLRELPEPLMTFNLYEEWTQVASVQDQDKKLQDLWRTCQKLPPQNFVNFRYLIKFLAKLAQTSDVNKMTPSNIAIVLGPNLLWARNEGTLAEMAAATSVHVVAVIEPIIQHADWFFPEEVEFNVSEAFVPLTTPSSNHSFHTGNDSDSGTLERKRPASMAVMEGDLVKKESFGVKLMDFQAHRRGGTLNRKHISPAFQPPLPPTDGSTVVPAGPEPPPQSSRAESSSGGGTVPSSAGILEQGPSPGDGSPPKPKDPVSAAVPAPGRNNSQIASGQNQPQAAAGSHQLSMGQPHNAAGPSPHTLRRAVKKPAPAPPKPGNPPPGHPGGQSSSGTSQHPPSLSPKPPTRSPSPPTQHTGQPPGQPSAPSQLSAPRRYSSSLSPIQAPNHPPPQPPTQATPLMHTKPNSQGPPNPMALPSEHGLEQPSHTPPQTPTPPSTPPLGKQNPSLPAPQTLAGGNPETAQPHAGTLPRPRPVPKPRNRPSVPPPPQPPGVHSAGDSSLTNTAPTASKIVTDSNSRVSEPHRSIFPEMHSDSASKDVPGRILLDIDNDTESTAL [ARHGAP17] | 0.413 | 48.2 °C | 49.1 °C | -0.0286 | 0.76 | 2.7
2 | MKLLARALRLCEFGRQASSRRLVAGQGCVGPRRGCCAPVQVVGPRADLPPCGACITGRIMRPDDANVAGNVHGGTILKMIEEAGAIISTRHCNSQNGERCVAALARVERTDFLSPMCIGEVAHVSAEITYTSKHSVEVQVNVMSENILTGAKKLTNKATLWYVPLSLKNVDKVLEVPPVVYSRQEQEEEGRKRYEAQKLERMETKWRNGDIVQPVLNPEPNTVSYSQSSLIHLVGPSDCTLHGFVHGGVTMKLMDEVAGIVAARHCKTNIVTASVDAINFHDKIRKGCVITISGRMTFTSNKSMEIEVLVDADPVVDSSQKRYRAASAFFTYVSLSQEGRSLPVPQLVPETEDEKKRFEEGKGRYLQMKAKRQGHAEPQP [ACOT7] | 0.0352 | 58.9 °C | 59.2 °C | -0.0718 | -2.43 | -3.98
3 | MKLNVDGLLVYFPYDYIYPEQFSYMRELKRTLDAKGHGVLEMPSGTGKTVSLLALIMAYQRAYPLEVTKLIYCSRTVPEIEKVIEELRKLLNFYEKQEGEKLPFLGLALSSRKNLCIHPEVTPLRFGKDVDGKCHSLTASYVRAQYQHDTSLPHCRFYEEFDAHGREVPLPAGIYNLDDLKALGRRQGWCPYFLARYSILHANVVVYSYHYLLDPKIADLVSKELARKAVVVFDEAHNIDNVCIDSMSVNLTRRTLDRCQGNLETLQKTVLRIKETDEQRLRDEYRRLVEGLREASAARETDAHLANPVLPDEVLQEAVPGSIRTAEHFLGFLRRLLEYVKWRLRVQHVVQESPPAFLSGLAQRVCIQRKPLRFCAERLRSLLHTLEITDLADFSPLTLLANFATLVSTYAKGFTIIIEPFDDRTPTIANPILHFSCMDASLAIKPVFERFQSVIITSGTLSPLDIYPKILDFHPVTMATFTMTLARVCLCPMIIGRGNDQVAISSKFETREDIAVIRNYGNLLLEMSAVVPDGIVAFFTSYQYMESTVASWYEQGILENIQRNKLLFIETQDGAETSVALEKYQEACENGRGAILLSVARGKVSEGIDFVHHYGRAVIMFGVPYVYTQSRILKARLEYLRDQFQIRENDFLTFDAMRHAAQCVGRAIRGKTDYGLMVFADKRFARGDKRGKLPRWIQEHLTDANLNLTVDEGVQVAKYFLRQMAQPFHREDQLGLSLLSLEQLESEETLKRIEQIAQQL [ERCC2] | -0.193 | 48.9 °C | 49.1 °C | -0.0825 | 1 | 2.34
4 | MKLYSLSVLYKGEAKVVLLKAAYDVSSFSFFQRSSVQEFMTFTSQLIVERSSKGTRASVKEQDYLCHVYVRNDSLAGVVIADNEYPSRVAFTLLEKVLDEFSKQVDRIDWPVGSPATIHYPALDGHLSRYQNPREADPMTKVQAELDETKIILHNTMESLLERGEKLDDLVSKSEVLGTQSKAFYKTARKQNSCCAIM [YKT6] | -0.0827 | 54.5 °C | 54.6 °C | -0.0935 | 0.334 | -0.9
